“Also recorded” adds a separate entry of the source.
Tests used:
[1] = Dynamic light scattering of nanoparticles; type: physicochemical; conditions: Malvern Zetasizer Nano S; for Size (Mean Z average): hydrodynamic diameter
Method: Lipid-peptide conjugates were synthesized from either DSPE-PEG-CO2H or DSPE-PEG-MAL using peptides derived using SVM prediction platform and listed in Supplementary Table S2. The peptides were conjugated to either the N-terminus or via sulfhydryl groups as depicted in Figure 1E. Lipid films from both PEGylated derivatives were prepared by evaporation under nitrogen gas, from 1 µM of lipid solution in chloroform. Tetrapeptides were custom-synthesized by Genscript. 5 µmol of peptide solutions in water:dimethylformamide (1:1) were prepared via a brief bath sonication. […] PEGylated lipids prepared above were sonicated (10 min, 300 W, room temperature) in 5 mL of MES (pH 6, 100 mM) for DSPE-PEG-CO2H and in 5 mL of HEPES buffered saline [HBS] (pH 7.2, 100 mM, 154 mM NaCl) for DSPE-PEG-MAL. Next, DSPE-PEG-CO2H was activated by the addition of 2 mg of EDC (20 mg/mL in water) and 5 mg of sulfo-NHS (10 mg/mL in water). This was sonicated at 15 W for 10 min in a temperature controlled bath at 30 °C. Then, peptide solutions/suspensions were added to the resulting DSPE-PEG-NHS or previously prepared DSPE-PEG-MAL and stirred at room temperature for 4 h. The reaction with DSPE-PEG-NHS was quenched by the addition of 100 µL of 0.5 M of NH2OH in HBS, plus 1 mM EDTA. The reaction with DSPE-PEG-MAL was quenched by the addition of 7 µL of 2-mercaptoethanol. The solution was freezed at -80 °C and lyophilized. Next, lipid-peptide conjugates were extracted with chloroform (3 x 2 mL) and centrifuged at 4000 g x 5 min. Combined extract supernatants were evaporated under N2 gas and sonicated (10 min, 100 W) in 0.5-1 mL of water at room temperature. This raw product was purified by size […] chromatography as follows. Millipore Vantage column (10 x 500 mm) was packed with Sepharose 4B in deionized water under flow rate of 0.5 mL/min. Next, 0.5 mL of raw nanoparticle preparation was injected into the column and 0.5 mL fractions were collected at 0.5 mL/min simultaneously with UV detection at 190, 214, 250 and 280 nm using the Bio Rad DuoFlow system equipped with BioLogic QuadTec UV/Vis detector. See Supplementary Figure S2 for representative chromatograms. Combined fractions 15-31 were frozen and lyophilized. Particles used in signalling In vitro work were prepared by reconstitution of lyophilizates in PBS or HBS buffer via sonication. Particles used in reporter, flow cytometry and microscopy experiments were prepared by addition of 1% (by weight) of Rhodamine-PE in ethanol followed by reconstitution as described above. Particles used in magnetic resonance imaging (MRI) and time-resolved fluorescence (TRF) assays were prepared by addition of 10-20% (by weight) of gadolinium or europium chelate-lipids followed by reconstitution as above. Gadolinium-DTPA (18:0 PE-DTPA) was obtained from Avanti Polar Lipids and europium cryptate-NHS was obtained from Aat Bioquest (Supplementary Table S1). Europium cryptate-NHS was further conjugated to phosphatidylethanolamine (PE) to obtain Eu-cryptate-PE according to published and well established protocols. To confirm peptide conjugation, the powder was reconstituted in 1 mL of chloroform and analyzed with TLC (eluent chloroform:methanol:water 65:25:4) detecting with Molybdenum blue (Supplementary Figure S3A) or Dragendorff reagent (Supplementary Figure S3B). Nanoparticles were characterized by dynamic light scattering using Malvern Zetasizer Nano S (Supplementary Table S3). The presence of the peptide bond (N-H) and aliphatic C-H and C-C stretches (lipids) was confirmed by infrared (IR) spectroscopy. Nanoparticles were isolated as a homogeneous population (peak) in gel-filtration (see above) and were used without additional purification.

[2] = test system: caspase 3 and heme oxygenase (HO-1) proteins in RAW cells; test: Immunoblot of active caspase 3 and HO-1; type: cell-based, mouse; conditions: 1 µM nanoparticles, 3 h
Method: Immunoblotting was performed as previously described with the following modifications. Briefly, cell lysates were obtained in SDS lysis buffer consisting of 2% SDS, 50 mM Tris-HCl (pH 6.8), 100 mM DTT, 5% Ficoll 400, 0.0001% bromophenol blue and a cocktail of protease inhibitors. Lysates were sonicated on ice before heating at 97 °C for 7 min to completely denature the protein. Protein concentration was determined using IR spectroscopy (which is insensitive to high SDS and DTT concentrations) with a Millipore DirectDetect spectrometer. Lysates were equally loaded at 10-15 µg per lane on BioRad TGX Criterion gels (4-15%) and resolved at 300 V in Tris-Glycine running buffer. Proteins were transferred on nitrocellulose membranes using the BioRad TransBlot turbo according to the manufacturer's instructions. Membranes were blocked in fish serum (Aqua Block) or 5% nonfat dry milk in TBS-T (0.05% Tween 20) and probed overnight at 4 °C with primary antibodies as indicated in Supplementary Table S1. The membranes were washed in TBS-T and incubated with secondary antibodies for 1 h at room temperature. After washing, semi-quantitative visualization of the proteins of interest was enabled using an enhanced chemiluminescence reagent as previously described and the Azure C400 western blot imaging system.
N-acetylcysteine (NAC) served as an antioxidant control. β-Actin was used as a loading control. B) Gene expression analysis in RAW cells treated with 1 µM of vehicle, CCTV and VTCC (peptide nanoparticle control) for 24 h. mRNA expression of mannose receptor (Mrc1), nitric oxide synthase 2 (Nos2), tumor necrosis factor (Tnf), interleukin-1beta (Il1b), and interleukin-6 (Il6) were analyzed. C) Cytokines in cell culture supernatants were analyzed as indicated. D) Schematic representation of transcriptional activation of primary and secondary inflammatory response to lipopolysaccharide (LPS). E) Immunoblot analysis of dose-dependent suppression of IL-1β and HO-1 production by CCTV with and without stimulation by 100 ng/mL LPS for 16 h in bone marrow derived macrophages (BMDMs). GAPDH served as a loading control. F) Chemotaxis assays in bone marrow derived monocytes treated with 5 µM vehicle, CCTV, VTCC or left untreated. Chemotaxis was stimulated by introducing a gradient of recombinant mouse CCL2. Forty (out of 150-300) cell migration tracks are presented for simplicity. Metrics of chemotactic behaviour i.e. velocity, distance travelled, and chemotactic index were quantified as presented in bar graphs. G) BMDMs were pre-treated for 6 h with 5 µM CCTV or VTCC followed by 500 nM CCL2 for the indicated times. […] P values are calculated by t-test and error bars are standard errors of three independent experiments.

[3] = test system: interleukin-1 beta (IL-1β); conditions: CANTOS clinical trial, cited from earlier work
Text: Inflammation is a process of immune system activation that is often accompanied by increased migration of immune cells to a site of injury or disease. Inflammation-driven immune cell migration is orchestrated via chemokine receptor-ligand pairs that are ubiquitously expressed in innate immune cells and are hyperactivated in many pathologies.

[4] = test system: F4/80-positive plaque macrophages; test: Immunohistochemistry / plaque macrophage co-staining; type: in vivo, mouse; conditions: rhodamine signal, 24 h after injection
Method: Twenty-four hours after nanoparticle injection (see above), mice were euthanized and abdominal aortas were isolated and embedded in Optimal Cutting Temperature compound. After cryotome-sectioning, resulting in 20-30 slides per mouse, 15 slides were sent to Ohio State laser capture microdissection core lab for capture and analysis. The rest of the slides were processed as follows: after fixation in methanol:acetone 50:50 at -20 °C, slides were hydrated in PBS, blocked for 30 min in fish serum (Aqua Block) and stained for 1 h with primary antibodies against F4/80 followed washing and staining with HRP-conjugated secondary antibody for 30 min. DAB peroxidase kit was then used as per manufacturer's instructions followed by mounting. DAB and antibody staining (but not wash steps) was omitted in slides designated for nanoparticle fluorescence visualization. Nanoparticles fluorescence was visualized with Zeiss 510 LSM-meta confocal microscope and 20x objective. DAB F4/80 staining was visualized with Nikon FN1 microscope and same power objective.

[5] = test system: bone marrow derived monocytes, CCL2-induced migration; test: CCL2-induced chemotaxis assay; type: cell-based, mouse; conditions: pre-treated BMDMs; 100 nM recombinant mouse CCL2, 12 h; nanoparticles
Method: Chemotaxis assays were performed using IBIDI µ-Slides as per the manufacturer's instructions and the recently published guide detailing the protocol. […] Cells were allowed to attach for 3 h at 37 °C, washed with 0.2 mL warm cell culture medium using a pipette tip inserted into µ-channel port, following which 100 nM recombinant mouse CCL2 protein was added as a chemoattractant (or omitted in control slides) to the one of side reservoirs. Cell movement was recorded for a duration of 12 h via phase video-microscopy in a stage-top humidified incubator at 37 °C and 5% CO2 atmosphere. Analysis was performed using the ImageJ IBIDI tracking tool, available free of charge at https://ibidi.com.

BMDMs = test: GSH/GSSG assay in LPS-primed BMDMs; type: cell-based, mouse; conditions: LPS-primed (100 ng/mL) BMDMs, 5 µM CCTV vs vehicle, 8 experiments
Method: GSH /GSSG, lactate dehydrogenase (LDH) and DCFDA assays were performed according to the manufacturer's instructions.

| Compound | Mean Polydispersity Index (PDI) [1] | Size (Mean Z average) [1] | also measured |
| --- | --- | --- | --- |
| DKQT [B1, DKQT peptide-lipid conjugate nanoparticle, N-terminus conjugation] | 0.176 | 204 nm | – |
| VTCC [A5] | 0.141 | 76 nm | apoptosis and cell death (RAW cells): significant apoptosis and cell death; active (cleaved at Asp175, p19/17) caspase 3 ([2]; listed as N-term VTCC): upregulation; heme oxygenase-1 (HO-1) levels ([2]; listed as N-term VTCC): upregulation |
| IVAK [B2, IVAK peptide-lipid conjugate nanoparticle, N-terminus conjugation] | 0.058 | 53 nm | – |
| ALLC [B4, ALLC peptide-lipid conjugate nanoparticle, N-terminus conjugation] | 0.151 | 86 nm | – |
| canakinumab: interleukin-1 beta (IL-1β) neutralizing monoclonal antibody | – | – | cardiovascular events ([3]; cardiovascular disease): a reduction in cardiovascular events; risk of death from infection and sepsis [3]: significantly increased risk of death from infection and sepsis |
| LLLI [B6, LLLI peptide-lipid conjugate nanoparticle, N-terminus conjugation] | 0.152 | 223 nm | – |
| ALLC [C4, ALLC peptide-lipid conjugate nanoparticle, SH conjugation] | 0.002 | 79 nm | – |
| QDSM [B5, QDSM peptide-lipid conjugate nanoparticle, N-terminus conjugation] | 0.169 | 198 nm | – |
| RLAS [A1, RLAS peptide-lipid conjugate nanoparticle, N-terminus conjugation] | 0.198 | 93 nm | – |
| HLDK [B3, HLDK peptide-lipid conjugate nanoparticle, N-terminus conjugation] | 0.257 | 61 nm | – |
| KISV [A4, KISV peptide-lipid conjugate nanoparticle, N-terminus conjugation] | 0.09 | 114 nm | – |
| KVSA [A2, KVSA peptide-lipid conjugate nanoparticle, N-terminus conjugation] | 0.124 | 110 nm | – |
| KTIV [A6, KTIV peptide-lipid conjugate nanoparticle, N-terminus conjugation] | 0.054 | 142 nm | – |
| VTCC | – | – | co-staining with F4/80 in plaque [4]: not VTCC rhodamine signal; CCL2-induced monocyte migration [5]: not seen with VTCC; Mean Polydispersity Index (PDI) ([1]; listed as C3): 0.148; Size (Mean Z average) ([1]; listed as C3): 167 nm |
| CC(=O)N[C@@H](CS)C(=O)O [NAC, N-Acetyl-L-cysteine, reference compound] | – | – | GSH levels (BMDMs): In contrast to classic antioxidant NAC, CCTV was unable to restore GSH levels; GSSG levels (BMDMs): In contrast to classic antioxidant NAC, CCTV was unable to restore GSH levels or reduce GSSG |
| MDHL [C2, MDHL peptide-lipid conjugate nanoparticle, N-terminus conjugation] | 0.111 | 134 nm | – |
| MKVS [C1, MKVS peptide-lipid conjugate nanoparticle, N-terminus conjugation] | 0.159 | 189 nm | – |
| CCTV [N-term CCTV] | – | – | apoptosis and cell death (RAW cells): significant apoptosis and cell death; active (cleaved at Asp175, p19/17) caspase 3 [2]: upregulation; also recorded: significant apoptosis-associated caspase-3 activity; heme oxygenase-1 (HO-1) levels [2]: upregulation; also recorded: increased |
| LLIA [A3, LLIA peptide-lipid conjugate nanoparticle, N-terminus conjugation] | 0.162 | 134 nm | – |
